The source of these data is the supplement of paper PMC10201428.

To fix the notation:
B1: library; a variant is named by its letters at N, in order (parent)
chain: AATGTTGTTGATGCAACCATAAAGTGATATTTAATAATTATTTATAATCAGCAACTTAACCACAAAACAACCATATATTGATATNTCACAAAACAACCATAANTTGATATTTTTGTGAATCGAGTATTTCAGCAAAACTACTGCAGTAAGAA

Variants of B1 are the subject of series [1]. The series is described as follows: relative integration efficiency (T-LR orientation) vs wild-type transposon end (log2 (normalized fold change)); transposon end mutated: left end; higher = more efficient transposition. As to conditions: with VchCAST RNA-guided transposition machinery (E. coli BL21(DE3) host, lacZ target). A digest of the protocol: (§1)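 Each barcoded pool, 1549 left-end or 1849 right-end transposon variants in a pUC57 mini-transposon donor, went into E. coli BL21(DE3) with a T7-driven effector plasmid (CRISPR array, tniQ-cas8-cas7-cas6, tnsA-tnsB-tnsC). Plates contained 0.1 mM IPTG and were held at 37°C for 18 h. Input plasmids and genomic integration junctions were PCR-amplified and read by Illumina sequencing, with two biological output replicates and four reference barcodes. Relative integration efficiency is the fold change of output over input barcode abundance, normalised to the reference barcodes and log-transformed.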

Variants of B1 are the subject of series [2]. As to the kind of experiment: relative integration efficiency (T-RL orientation) vs wild-type transposon end (log2 (normalized fold change)); transposon end mutated: left end; higher = more efficient transposition. As to conditions: with VchCAST RNA-guided transposition machinery (E. coli BL21(DE3) host, lacZ target). An outline of the steps:
as §1

± gives the standard deviation of the averaged measurements.

On to TA T76A A77G C87T A102T T111C T113C, for which the results for the “relative integration efficiency (log2)” value in series [1] and in series [2] were -0.406 ± 0.13 and -0.659 ± 0.28, respectively.
On to CC A22T A23T G24C T76A A77T T78A A102T T104A, for which the “relative integration efficiency (log2)” value is -0.143 ± 0.92 in series [1] and -0.196 ± 0.36 in series [2].
CG A27T T28A: the “relative integration efficiency (log2)” value in series [1] was -0.61 ± 0.9; in series [2], -0.441 ± 0.66.
Turning to CC A21T A22T A23T G24C A75T T76A A77T T78A A101T A102T T104A, the results for the “relative integration efficiency (log2)” value in series [1] and in series [2] were -2.73 ± 1.6 and -2.03 ± 0.58, respectively.
TG A16C G24T T32G A33C T76A T78A T84A C87A: the “relative integration efficiency (log2)” value in series [1] was -0.658 ± 0.78; in series [2], -0.572 ± 0.34.
Take CG A1T A2T T3A G4C T5A: the entries for the “relative integration efficiency (log2)” value in series [1] and in series [2] were -0.0748 ± 0.54 and 0.103 ± 0.061, respectively.
The corresponding values for CG A33T A34T T35A A36T are 0.405 ± 0.42 and 0.295 ± 0.092.
The matching figures for TA T76A T78G C87A A96C T112G T113C: 0.518 ± 0.51 and 0.206 ± 0.018.
For the variant TG A22T G24T T31C A33C A70C T76A T84A C87A, the “relative integration efficiency (log2)” value in series [1] was -0.478 ± 0.83; in series [2], -0.488 ± 0.46.
The matching figures for CG A21T A22T A23T G24C: -0.979 ± 0.79 and -0.775 ± 0.46.
Regarding CG A27C T28G, the “relative integration efficiency (log2)” value in series [1] was -0.919 ± 0.29; in series [2], -1.27 ± 0.47.
With CG A23C G24T, the results for the “relative integration efficiency (log2)” value in series [1] and in series [2] were -0.153 ± 0.042 and -0.106 ± 0.064, respectively.
In the case of TA T76A T78A T84A C87A A102T T111C T113C, the results for the “relative integration efficiency (log2)” value in series [1] and in series [2] were -0.0132 ± 0.72 and 0.244 ± 0.16, respectively.
With TG A22T G24T T31C A33C T76A T78A T84A C87A, the figures for the “relative integration efficiency (log2)” value in series [1] and in series [2] were -0.618 ± 0.17 and -0.5 ± 0.36, respectively.
TA T76A T78A T84A C87A T104A T110A T113A: the “relative integration efficiency (log2)” value in series [1] amounted to 0.357 ± 0.48; in series [2] it was 0.0146 ± 0.17.
Take TA G24A T30A T76A T78A T84A C87A T104G T113A: the “relative integration efficiency (log2)” value in series [1] is 0.368 ± 0.38; in series [2], -0.186 ± 0.3.
Consider TG A16C G24T T30A A70C T76A T86G, for which the “relative integration efficiency (log2)” value in series [1] was 0.235 ± 0.55; in series [2], 0.0267 ± 0.24.
The matching figures for CG A34C T35G A36C A37C: 0.532 ± 0.072 and 0.175 ± 0.24.
The corresponding values for TG A16C G24T T30A A70C T76A T84A C87A are -0.916 ± 0.88 and -0.362 ± 0.11.
The matching figures for CC A102T: 0.202 ± 0.2 and -0.155 ± 0.12.
Regarding CG A29G, the “relative integration efficiency (log2)” value was -0.232 ± 0.74 in series [1] and -0.238 ± 0.44 in series [2].
On to CG A29C, for which the “relative integration efficiency (log2)” value in series [1] was -0.501 ± 0.28; in series [2], -0.333 ± 0.36.
For the variant CG A29T, the “relative integration efficiency (log2)” value is -0.0387 ± 0.14 in series [1] and 0.26 ± 0.13 in series [2].
The corresponding values for CC T104A are -0.472 ± 0.64 and -0.478 ± 0.0072.
On to CC A23T A77T, for which the “relative integration efficiency (log2)” value in series [1] was 0.131 ± 0.37; in series [2] it was -0.225 ± 0.1.
The matching figures for CG A44G A46G T48G A50G C52A A53T C55A T56C T57A: -3.63 ± 2.8 and -4.04 ± 1.1.
On to TA T76A A77G C87T T104A T110A T113A, for which the “relative integration efficiency (log2)” value in series [1] is 0.28 ± 0.36; in series [2], -0.703 ± 0.35.
CG A47C T48G: the results for the “relative integration efficiency (log2)” value in series [1] and in series [2] were -0.613 ± 0.46 and -0.656 ± 0.35, respectively.
The matching figures for CG A46C A47C T48G C49A: -2.09 ± 0.25 and -1.44 ± 0.53.
Take CG A27C A81C A107C: the “relative integration efficiency (log2)” value is -1.49 ± 1.6 in series [1] and -1.32 ± 0.78 in series [2].
As for CG A16C C17A C18A A19C, the “relative integration efficiency (log2)” value was -3.65 ± 3.1 in series [1] and -2.24 ± 0.77 in series [2].
The corresponding values for CG A27T T28A A29T T30A are -0.918 ± 0.29 and -0.753 ± 0.39.
As to TA T76A A77G C87T A96C T110A T113A, the “relative integration efficiency (log2)” value in series [1] is -0.108 ± 0.52; in series [2], -0.522 ± 0.3.
As to CG A34G, the “relative integration efficiency (log2)” value in series [1] is -0.187 ± 0.0028; in series [2], -0.0204 ± 0.046.
As to CG A34C, the “relative integration efficiency (log2)” value was found to be 0.459 ± 0.34 in series [1] and 0.215 ± 0.064 in series [2].
Turning to CG A34T, the “relative integration efficiency (log2)” value in series [1] amounted to 0.848 ± 0.42; in series [2], 0.709 ± 0.11.
Regarding TA G24A T30A T76A T78G C87A A102T T111C T113C, the “relative integration efficiency (log2)” value in series [1] is -0.298 ± 0.65; in series [2] it was 0.243 ± 0.089.
For CG A46T A47T, the results for the “relative integration efficiency (log2)” value in series [1] and in series [2] were 0.446 ± 0.37 and 0.452 ± 0.058, respectively.
The corresponding values for CA T104A T110A T113A are -0.182 ± 0.39 and -0.656 ± 0.2.
The matching figures for CG A22C A23C: -1.74 ± 0.31 and -1.42 ± 0.42.
In the case of CG A19C T20G, the “relative integration efficiency (log2)” value in series [1] is -2.1 ± 1.2; in series [2], -2.69 ± 0.82.
With CG A16C G24T T32G A33C, the entries for the “relative integration efficiency (log2)” value in series [1] and in series [2] were -0.475 ± 0.83 and -0.332 ± 0.18, respectively.
For CG A33C A34C, the “relative integration efficiency (log2)” value in series [1] was -0.259 ± 0.42; in series [2] it was 0.167 ± 0.0038.
As to CG A33C C87A T113G, the figures for the “relative integration efficiency (log2)” value in series [1] and in series [2] were 0.0172 ± 0.12 and -0.0603 ± 0.021, respectively.
As to CG A40T T41A T42A T43A, the “relative integration efficiency (log2)” value in series [1] turned out to be 0.256 ± 0.21; in series [2], 0.0403 ± 0.12.
Take TA T76A T78A T84A C87A T104G T113A: the “relative integration efficiency (log2)” value is 0.188 ± 0.023 in series [1] and -0.245 ± 0.21 in series [2].
Turning to CC A101T A102T T104A, the “relative integration efficiency (log2)” value in series [1] was -0.0376 ± 0.63; in series [2], -0.0794 ± 0.32.
In the case of CG A44T, the “relative integration efficiency (log2)” value was determined as 0.138 ± 0.09 in series [1] and 0.0943 ± 0.032 in series [2].
As to CG A44G, the entries for the “relative integration efficiency (log2)” value in series [1] and in series [2] were 0.0745 ± 0.29 and 0.155 ± 0.065, respectively.
For the variant CG A44C, the “relative integration efficiency (log2)” value in series [1] is -0.0239 ± 0.24; in series [2], 0.147 ± 0.068.
The matching figures for CG A1C A2C: -0.0923 ± 0.12 and -0.242 ± 0.0032.
Take CG A22T: the “relative integration efficiency (log2)” value worked out at 0.128 ± 0.29 in series [1] and 0.0984 ± 0.17 in series [2].
For CG A22G, the “relative integration efficiency (log2)” value is -1.1 ± 1.1 in series [1] and -0.733 ± 0.88 in series [2].
The corresponding values for CG A22C are -1.26 ± 0.71 and -1.07 ± 0.48.
For CG A2T T3A, the “relative integration efficiency (log2)” value worked out at 0.399 ± 0.43 in series [1] and 0.191 ± 0.092 in series [2].
With CG A19T T20A A21T A22T, the results for the “relative integration efficiency (log2)” value in series [1] and in series [2] were -1.03 ± 0.48 and -1.21 ± 0.46, respectively.
As to CG A23T G24C T25A G26C, the entries for the “relative integration efficiency (log2)” value in series [1] and in series [2] were -2.69 ± 1.5 and -2.6 ± 0.78, respectively.
The corresponding values for TG A16C G24T T30A T76A T78G C87A are -0.0456 ± 0.17 and 0.0194 ± 0.14.
